Like-named read-outs stand apart in the source and are kept apart here.

Assay [1] has as its target His-tagged mouse TfR ectodomain (mTFRC_89_764; mature protein) (mouse, UniProt Q62351 89-763). The assay can be described thus: SPR, His-tagged mTfR ectodomain captured on anti-His. As to the method:
(§1) Experiments were run on Bruker MASS-2 instrument with HBS-EP+ as running buffer and sample diluent (Cytiva Life Sciences, #BR100826). HCA sensorchips (Bruker, #1862614) were immobilized with anti his antibody (His capture kit, Cytiva Life Sciences, #28995056) following provider's instructions. About 10 000 RU of anti his was obtained. […] Surface was regenerated with one 1 min pulse of 10 mM Glycine-HCl pH1.5.
(In general: Surface plasmon resonance follows binding to a sensor surface in real time, without labels.)

The target of assay [2] is T1, His-tagged human TfR ectodomain (hTFRC_89-760_G142S; mature protein) (human, UniProt P02786 89-760).
T1 construct: It carries the G142S haplotype; also called hTfR ectodomain
Nature of the assay: SPR, His-tagged TfR ectodomain captured on anti-His, 1:1 fit. As to the method: as §1

For assay [3], the target named is T2, His-tagged cynomolgus monkey TfR ectodomain (cyTFRC_89_760; mature protein) (cynomolgus monkey (Macaca fascicularis), UniProt Q5RDH6 89-760 (Pongo abelii entry)).
T2 construct: also called cTfR; cTfR ectodomain
T2 chain: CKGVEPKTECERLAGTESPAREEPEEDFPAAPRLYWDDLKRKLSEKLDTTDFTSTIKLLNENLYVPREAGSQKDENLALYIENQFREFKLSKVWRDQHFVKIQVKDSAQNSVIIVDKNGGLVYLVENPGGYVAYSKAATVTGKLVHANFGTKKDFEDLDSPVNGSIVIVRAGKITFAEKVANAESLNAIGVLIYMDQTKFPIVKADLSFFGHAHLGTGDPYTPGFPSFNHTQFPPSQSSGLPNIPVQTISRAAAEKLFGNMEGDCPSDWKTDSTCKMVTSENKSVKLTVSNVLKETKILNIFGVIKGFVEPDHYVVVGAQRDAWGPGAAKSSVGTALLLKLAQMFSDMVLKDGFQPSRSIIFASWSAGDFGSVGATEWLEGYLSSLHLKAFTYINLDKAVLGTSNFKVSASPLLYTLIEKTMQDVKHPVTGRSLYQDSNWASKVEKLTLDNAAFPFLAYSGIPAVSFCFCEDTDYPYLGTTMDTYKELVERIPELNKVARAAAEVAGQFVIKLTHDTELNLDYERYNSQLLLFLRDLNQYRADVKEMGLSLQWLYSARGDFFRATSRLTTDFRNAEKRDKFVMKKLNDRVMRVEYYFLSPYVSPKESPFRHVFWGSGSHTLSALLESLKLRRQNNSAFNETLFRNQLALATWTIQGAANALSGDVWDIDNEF
Described as above. As to the method: as §1

Assay [4] concerns the target T1, His-tagged human TfR ectodomain …. The description is as above. As to the method: (§2) Binding of the humanized Fab variants to human, cynomolgus and mouse TfR was assessed using SPR at pH 7.4. Experiments were run on a Bruker MASS-2 instrument with HBS-EP+ as running buffer and sample diluent (Cytiva Life Sciences, #BR100826). HCA sensor chips (Bruker, #1862614) were immobilized with anti-His antibody (His capture kit, Cytiva Life Sciences, #28995056) following manufacturer's instructions. About 10,000 RU of anti-His was obtained. His-tagged hTfR ectodomain (SEQ ID NO: 39), cTfR ectodomain (SEQ ID NO: 40) or mouse TfR ectodomain (SEQ ID NO: 41) (5 μg/ml) was captured for 1 min at 10 μL/min. Concentration series of the humanized Fab variants were then injected for 4 min at 30 μL/min over hTfR surfaces and dissociation was monitored for 5 min. Surface was regenerated with one 1 min pulse of 10 mM glycine-HCl at pH 1.5.
The source holds these as a separate data set.

In assay [5] the target is T2, His-tagged cynomolgus monkey TfR …. The assay is described as above. As to the method:
as §2

The target is the same in assay [6]. Nature of the assay: SPR; KD on cTfR against KD on hTfR. As to the method:
as §1

Assay [7] has the same target. The assay can be described thus: SPR; KD on cTfR against KD on hTfR. As to the method:
as §2

Chain of His-tagged mouse TfR ectodomain (mTFRC_89_764; mature protein) (Q62351 other isoform, or with tags, fused parts or gaps): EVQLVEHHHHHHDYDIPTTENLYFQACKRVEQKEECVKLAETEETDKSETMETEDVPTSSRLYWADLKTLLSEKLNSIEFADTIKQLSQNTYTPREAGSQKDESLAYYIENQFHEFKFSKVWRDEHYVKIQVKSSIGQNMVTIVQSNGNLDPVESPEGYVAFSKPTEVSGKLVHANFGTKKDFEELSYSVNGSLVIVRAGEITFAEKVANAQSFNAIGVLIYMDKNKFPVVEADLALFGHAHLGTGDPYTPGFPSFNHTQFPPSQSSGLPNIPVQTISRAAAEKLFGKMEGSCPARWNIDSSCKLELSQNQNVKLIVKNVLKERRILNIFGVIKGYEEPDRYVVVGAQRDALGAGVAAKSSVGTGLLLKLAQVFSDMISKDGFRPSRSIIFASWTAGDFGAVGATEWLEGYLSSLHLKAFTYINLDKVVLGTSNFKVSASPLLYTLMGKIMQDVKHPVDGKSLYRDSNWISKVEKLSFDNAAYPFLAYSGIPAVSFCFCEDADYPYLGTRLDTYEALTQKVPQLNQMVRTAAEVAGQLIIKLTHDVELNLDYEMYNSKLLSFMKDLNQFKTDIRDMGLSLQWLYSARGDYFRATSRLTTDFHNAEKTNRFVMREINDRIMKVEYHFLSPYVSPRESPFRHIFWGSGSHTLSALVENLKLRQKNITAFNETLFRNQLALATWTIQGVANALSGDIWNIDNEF

B1: 531-1L2_mouse mAb (antibody, IgG1, V domains shown)
VH: QVQLQQPGAELVSPGASVKLSCKASDYTFTRYWLNWVKQRPGQGLEWIGMIDPSVSECHYSQMFKDKATLTVDKSSSTAYMLLNSLTSEDSAVYYCSQIRLPYYYAMDSWGQGTSVTVSS
VL: DIQMTQTPSSLSASLGDRVTISCRASQDINSFLNWYQQKPDGTVKLLIYYTSRLHSGVPSRFSGSGSGTDYSLTIGNLDQEDIATYFCQQGNTLPRTFGGGTKLELK
notes: constant regions are not
On to B1, for which the binding result in assay [1] was “no binding”. Moreover, the Kd (in general, a measure of binding affinity in units of concentration) is 6.9 nM in assay [2], 27 nM in assay [3], 6.93 nM in assay [4] and 27 nM in assay [5]. Further, the “Cynomolgus/human KD ratio” value in assay [6] and in assay [7] was 3.9 in each case.

(Values after patent US20240226314A1 (Sanofi, published 2024).)
